Data on 116 sequences can be found in the supplement of paper PMC10724198.

± gives the standard deviation of the averaged measurements.
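Further: PSI is a weighted mean of sequencing reads over stability bins, variants kept only with over 10 reads, mCherry proximal and sfGFP distal, peptide attached via GGGS linker.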

This data set concerns Saccharomyces cerevisiae. As to the kind of experiment: protein stability index of tFT-peptide fusion (C-terminal peptide) (PSI (0-1 scale)); higher = more stable (slower turnover). The following applies: genetic background: wild type; temperature: 30 C.
IPFPSFPASLYR yielded a protein stability index of 0.694 ± 0.021.

IPGDTLSTTTVT had a protein stability index of 0.67 ± 0.05.

Turning to IPLGGPTPSNYD, the protein stability index is 0.721 ± 0.025.

On to IPSHSVLCLSIY, for which the protein stability index amounted to 0.497 ± 0.042.

Regarding IQHWGIRRRITY, the protein stability index worked out at 0.728 ± 0.066.

For the sequence IQKIKYKRKYIK, the protein stability index came to 0.73 ± 0.027.

Regarding IQLPPPYATPPS, the protein stability index was determined as 0.645 ± 0.012.

The sequence IQSRDDTVEGRK returned a protein stability index of 0.63 ± 0.0095.

Take IRAKKLNKSNNK: the protein stability index worked out at 0.7028 ± 0.0053.

Consider IREQQKNQNHKE, for which the protein stability index was determined as 0.642 ± 0.051.

Sequence IRGAARRRTQGY gave a protein stability index of 0.731 ± 0.038.

The sequence IRGGGGLGGGGV registered a protein stability index of 0.703 ± 0.023.

Take IRGIKSRKFTSV: the protein stability index is 0.753 ± 0.0079.

For the sequence IRGYSVKRIRED, the protein stability index was 0.683 ± 0.045.

IRHSTRTRPSSV registered a protein stability index of 0.745 ± 0.03.

In turn, IRNACRINESQC returned a protein stability index of 0.698 ± 0.017.

IRPFSPAPPRYP came in with a protein stability index of 0.722 ± 0.075.

As for IRPPPPPPPRAA, the protein stability index is 0.59 ± 0.07.

IRRSVVRCLFTE registered a protein stability index of 0.707 ± 0.056.

Regarding IRTITSVQTFPE, the protein stability index turned out to be 0.673 ± 0.029.

With ISCFRLGFVRKI, the protein stability index worked out at 0.535 ± 0.0058.

For ISCGERSRGGGK, the protein stability index was found to be 0.6122 ± 0.0029.

Sequence ISEGKTIIYCLW yielded a protein stability index of 0.523 ± 0.081.

Turning to ISEGNNQNLSQT, the protein stability index turned out to be 0.689 ± 0.011.

With ISEGSSRFRTSL, the protein stability index was found to be 0.6542 ± 0.0025.

ISFVFSDSLFPI: the protein stability index worked out at 0.785 ± 0.012.

Sequence ISGIKNKKKKGT returned a protein stability index of 0.684 ± 0.066.

On to ISHPTPQSVPAI, for which the protein stability index is 0.612 ± 0.0063.

ISLGVDFSFCSL showed a protein stability index of 0.7014 ± 0.0042.

In the case of ISLTSYVCGRVL, the protein stability index turned out to be 0.648 ± 0.014.

As for ISLWALSQLPVP, the protein stability index came out at 0.79 ± 0.19.

As to ISPGWLSRLWVR, the protein stability index amounted to 0.629 ± 0.0083.

On to ISPRLGLPLAPL, for which the protein stability index was 0.732 ± 0.067.

In turn, ISPTTFSTHDRC came in with a protein stability index of 0.665 ± 0.077.

ISQAIMTNPIKE registered a protein stability index of 0.598 ± 0.14.

As to ISVPMPSFGPLP, the protein stability index came out at 0.6938 ± 0.002.

The sequence ISVPPFPAPPPP had a protein stability index of 0.745 ± 0.13.

Consider ISYLSILTSCPW, for which the protein stability index was found to be 0.65423 ± 0.00026.

With ISYQVDIIKGKI, the protein stability index amounted to 0.6781 ± 0.00071.

Take ITFTCRHQGKKK: the protein stability index came to 0.759 ± 0.095.

Consider ITRVGSLENSQV, for which the protein stability index is 0.635 ± 0.013.

For ITSSPNVGKTTN, the protein stability index was found to be 0.713 ± 0.024.

For ITSWCNVFLGRA, the protein stability index turned out to be 0.71 ± 0.018.

Turning to IVADKSPLSSPP, the protein stability index is 0.6947 ± 0.0017.

Consider IVENSLEEKERR, for which the protein stability index was 0.673 ± 0.056.

As for IVGIEGYNEIKT, the protein stability index was determined as 0.803 ± 0.27.

Consider IVKFVRAIGRKK, for which the protein stability index was 0.664 ± 0.028.

For IVPPPHRHRRSI, the protein stability index was determined as 0.824 ± 0.064.

IVSNLILSKRCN displayed a protein stability index of 0.652 ± 0.064.

IVTLPTNPYTPV came in with a protein stability index of 0.717 ± 0.046.

On to IVTQGCLFFLVR, for which the protein stability index stood at 0.687 ± 0.038.

In turn, IWTSFKRRRWNF yielded a protein stability index of 0.532 ± 0.033.

IWVGNEENEEII: the protein stability index was determined as 0.669 ± 0.082.

In turn, IYSWSAALFHCR returned a protein stability index of 0.75 ± 0.1.

As to IYVWALSPVTLP, the protein stability index turned out to be 0.628 ± 0.019.

For KAGCDYYHRRSF, the protein stability index came out at 0.675 ± 0.061.

In the case of KAGDRRPDNHSN, the protein stability index was 0.66 ± 0.064.

KANIKGIKTRIT displayed a protein stability index of 0.642 ± 0.076.

On to KARNIVESGKTQ, for which the protein stability index was found to be 0.722 ± 0.038.

As to KASAASLFILMS, the protein stability index came to 0.611 ± 0.012.

In turn, KASEALGYTSNE registered a protein stability index of 0.675 ± 0.037.

Sequence KATNLNKVRRWE came in with a protein stability index of 0.693 ± 0.048.

KCCRVTCCGGLR returned a protein stability index of 0.65 ± 0.028.

In turn, KCLALSAGWIAT returned a protein stability index of 0.627 ± 0.033.

As for KCRGRGRQEAFE, the protein stability index was 0.6643 ± 0.0018.

In turn, KCVDSREKITMD gave a protein stability index of 0.672 ± 0.072.

In turn, KDGGRLRVDQWI came in with a protein stability index of 0.706 ± 0.076.

Consider KDKKERTTEKKT, for which the protein stability index was determined as 0.693 ± 0.13.

As for KDLFDLYLKRLL, the protein stability index worked out at 0.65 ± 0.0098.

As to KDVYEKHLNKQT, the protein stability index is 0.722 ± 0.1.

KEDGEIIDRYVL displayed a protein stability index of 0.616 ± 0.074.

In turn, KEEKLKNKITKY registered a protein stability index of 0.679 ± 0.011.

Take KEEKRMKLKKLQ: the protein stability index stood at 0.537 ± 0.082.

Regarding KEEYSYQRVGEL, the protein stability index is 0.661 ± 0.015.

KEGDMWRVSTLD yielded a protein stability index of 0.682 ± 0.016.

On to KELGGSSEITEI, for which the protein stability index was 0.658 ± 0.072.

Sequence KELIGITYKNSS came in with a protein stability index of 0.6766 ± 0.0058.

With KEMRCRKKKEGK, the protein stability index was 0.683 ± 0.048.

Sequence KEQNKKQKAKDL returned a protein stability index of 0.719 ± 0.1.

KEQYFKGSKKPI: the protein stability index amounted to 0.651 ± 0.029.

With KERKNKKINRKF, the protein stability index was 0.686 ± 0.093.

KEVDGRALVAEE returned a protein stability index of 0.655 ± 0.035.

With KEVNEDIDKAKS, the protein stability index is 0.782 ± 0.18.

KEWGGEGRDAWG yielded a protein stability index of 0.6834 ± 0.0061.

For KEYKKKKKKIDK, the protein stability index is 0.671 ± 0.022.

Turning to KFIVQNENSGQC, the protein stability index was determined as 0.677 ± 0.041.

Take KFKVLKVLEVRL: the protein stability index was 0.6453 ± 0.0019.

Regarding KFLQRTPGHSSE, the protein stability index came to 0.699 ± 0.048.

The sequence KGDCGGRGCGRH yielded a protein stability index of 0.682 ± 0.0076.

The sequence KGKKTKQKRAKK registered a protein stability index of 0.6521 ± 0.0064.

KGKNTEKEEEEK showed a protein stability index of 0.685 ± 0.019.

Take KGQPTTRVKEEW: the protein stability index turned out to be 0.654 ± 0.0091.

On to KGRAERKKDKKR, for which the protein stability index was found to be 0.684 ± 0.025.

For the sequence KGRAGTDVPLAR, the protein stability index is 0.712 ± 0.052.

Regarding KGRQVDQALVRG, the protein stability index came out at 0.634 ± 0.019.

For KGTRKPSTKIIV, the protein stability index was 0.667 ± 0.074.

Sequence KGWGDGPGSYVN registered a protein stability index of 0.68 ± 0.035.

For KGYEGGRRCELE, the protein stability index worked out at 0.696 ± 0.039.

For the sequence KHCFDIEILRYQ, the protein stability index was found to be 0.664 ± 0.016.

KHFLFSVVHFSG yielded a protein stability index of 0.696 ± 0.028.

KHSTTSRCVWYT registered a protein stability index of 0.627 ± 0.13.

Regarding KIDEQNKNKMGM, the protein stability index came out at 0.615 ± 0.082.

As for KIDKLRKRQRKK, the protein stability index is 0.664 ± 0.017.

In turn, KIENQKKRLQRT returned a protein stability index of 0.708 ± 0.028.

Sequence KIGVHRGRGGRM came in with a protein stability index of 0.614 ± 0.13.

KIKESIKIKKKR registered a protein stability index of 0.6789 ± 0.0027.

In turn, KIMIGQPDGINV gave a protein stability index of 0.65 ± 0.015.

In turn, KIQLTTMKNHGK showed a protein stability index of 0.685 ± 0.013.

For KIRRIHRNVVKG, the protein stability index is 0.786 ± 0.055.

For the sequence KKEEQEKKNRNK, the protein stability index was 0.711 ± 0.027.

Regarding KKEGIWEGERVG, the protein stability index amounted to 0.724 ± 0.011.

KKELKKRNKAKK came in with a protein stability index of 0.66 ± 0.012.

Sequence KKENKERNNEYE had a protein stability index of 0.708 ± 0.081.

Regarding KKGKQQKTEKNG, the protein stability index worked out at 0.802 ± 0.26.

Sequence KKGKSKKKGKKT displayed a protein stability index of 0.6906 ± 0.0018.

On to KKGVSNKVSGFT, for which the protein stability index came out at 0.719 ± 0.014.
